First the molecules themselves.
B1: LIM and senescent cell antigen-like-containing domain protein 2, residues 13 to 71; numbered along this chain, Q7Z4I7 (parent)
chain: AVCQRCQARFSPAERIVNSNGELYHEHCFVCAQCFRPFPEGLFYEFEGRKYCEHDFQML

± gives the uncertainty stated by the source.

The variants in this data set derive from B1. Put plainly: abundance fitness (aPCA) (normalised: wild type 0, dead -1); higher = more abundant; growth selection in yeast, the domain comes from the species named. The note with it: Homo sapiens.
Regarding AVCQRCQARFSPAERIVNSNGELYHEHCFVCAQCFRPFPEGDFYEFEGRKYCEHDFQML, the abundance fitness is -0.023 ± 0.11.

As for AVCQRCQARFSPAERIVNSNGELYHEHCFVCAQCFRPFPEGLFYEFEGRKYCEHDFQMN, the abundance fitness is -0.676 ± 0.44.

As for AVCQRCQARFSPAERIVNSNIELYHEHCFVCAQCFRPFPEGLFYEFEGRKYCEHDFQML, the abundance fitness was -0.947 ± 0.36. As for AVCQRCQARFSPAERIVNSNGELYHEHCFVCAQCFRPFPEGLFYEFEGRKYCETDFQML, the figure is 0.235 ± 0.078. As for AVCQRCQARFSPAERIVNSNGELYHEHCFVCAQCFRPFPEALFYEFEGRKYCEHDFQML, the figure is -0.238 ± 0.066.

Take AVCQRCQARFSPAERIVNSNGELYHEHCFVCAQCLRPFPEGLFYEFEGRKYCEHDFQML: the abundance fitness worked out at 0.031 ± 0.05. The value for AVCQRCQARFSPAERIVPSNGELYHEHCFVCAQCFRPFPEGLFYEFEGRKYCEHDFQML was -0.191 ± 0.086; that for AVCQRCQARFSPAERIVTSNGELYHEHCFVCAQCFRPFPEGLFYEFEGRKYCEHDFQML was -0.312 ± 0.096; that for AVCQRCQARFSPAERIVHSNGELYHEHCFVCAQCFRPFPEGLFYEFEGRKYCEHDFQML was -0.281 ± 0.2.

Turning to AVCQRSQARFSPAERIVNSNGELYHEHCFVCAQCFRPFPEGLFYEFEGRKYCEHDFQML, the abundance fitness is -0.804 ± 0.084. As for AVCQRCQARFSPAERIVNSNGELYHEHCFVCAQCFRPFPEGLNYEFEGRKYCEHDFQML, the figure is -0.387 ± 0.25; as for AVCQRCQARFSPAERIVNSNGELYHEHCFVCAQCFRPFPEGLIYEFEGRKYCEHDFQML, -0.263 ± 0.17; as for AVCQRCQARFSPAERIVNSNGELYHEHCFVCAQCFRPFPEGLRYEFEGRKYCEHDFQML, -0.37 ± 0.07. As for AVCQRCQARFSPAERKVNSNGELYHEHCFVCAQCFRPFPEGLFYEFEGRKYCEHDFQML, the figure is 0.098 ± 0.057. As for AVCQRCQARFSPAERIVNSNGELYHEHCFVCAQCFRPFPEGLFYEEEGRKYCEHDFQML, the figure is -0.286 ± 0.095; as for AVCQRCQARFSPAERIVNSNGELYHEHCFVCAQCFRPFPEGLFYEVEGRKYCEHDFQML, -0.05 ± 0.067; as for AVCQRCQARFSPAERIVNSNGELYHEHCFVCAQCFRPFPEGLFYEWEGRKYCEHDFQML, 0.014 ± 0.085. As to AVCQRCQARFSPAERIVNSNGELYHEHCFVCAQCFRPFPEGLFYEQEGRKYCEHDFQML, the abundance fitness is -0.272 ± 0.097.

As to AVCQRCQARFSPAERIVNSNGELYHEHCFVCAQCFRPFPEGLFYENEGRKYCEHDFQML, the abundance fitness was -0.202 ± 0.18. The value for AVCQRCQARFSPAERIVNSNGELYHEHCFVCAQCFRPFPIGLFYEFEGRKYCEHDFQML was -0.752 ± 0.15; that for AVCQRCQARFSPAERIVNSNGELYHEHCFVCAQCFRPFPGGLFYEFEGRKYCEHDFQML was -0.158 ± 0.054.

As to AVCQRCQARFSPARRIVNSNGELYHEHCFVCAQCFRPFPEGLFYEFEGRKYCEHDFQML, the abundance fitness was -0.651 ± 0.071. As for AVCQRCFARFSPAERIVNSNGELYHEHCFVCAQCFRPFPEGLFYEFEGRKYCEHDFQML, the figure is -0.083 ± 0.064; as for AVCQRCPARFSPAERIVNSNGELYHEHCFVCAQCFRPFPEGLFYEFEGRKYCEHDFQML, -0.802 ± 0.078; as for AVCQRCQARFSPAERIVNSNGELYHEHCFVHAQCFRPFPEGLFYEFEGRKYCEHDFQML, -0.481 ± 0.13. The value for AVCQRCQGRFSPAERIVNSNGELYHEHCFVCAQCFRPFPEGLFYEFEGRKYCEHDFQML was 0.184 ± 0.061. Turning to AVCQRCQFRFSPAERIVNSNGELYHEHCFVCAQCFRPFPEGLFYEFEGRKYCEHDFQML, the abundance fitness was -0.039 ± 0.065.

With AVCQRCQARFSPAERIVNSNGELYHEHCFVCAQCFRPFPEGLFYEFEGDKYCEHDFQML, the abundance fitness was -0.413 ± 0.26. The value for AVCQRCQARFSPAERIVNSNGELYHEHCFVCAQCFRPFPEGLFYEFEGMKYCEHDFQML was -0.102 ± 0.095. As for AVCQRCQARFSPAERIVNSNGELYHEHCFVCAQCFRPFPEGLFYEFEGIKYCEHDFQML, the figure is -0.101 ± 0.12; as for AVCQRCQARFSPAERIVNSNGELYWEHCFVCAQCFRPFPEGLFYEFEGRKYCEHDFQML, -0.568 ± 0.1. As for AVCQRCQARFSPAERIVNSNGELYKEHCFVCAQCFRPFPEGLFYEFEGRKYCEHDFQML, the figure is -0.929 ± 0.15; as for AVCQRCQARFSPAERIVNSNGELYIEHCFVCAQCFRPFPEGLFYEFEGRKYCEHDFQML, -0.972 ± 0.18; as for AVCQRCQARFSPAEIIVNSNGELYHEHCFVCAQCFRPFPEGLFYEFEGRKYCEHDFQML, -0.017 ± 0.067. Take AVCQRCQARFSPAEVIVNSNGELYHEHCFVCAQCFRPFPEGLFYEFEGRKYCEHDFQML: the abundance fitness is -0.107 ± 0.05. For AVCQRCQARFSPAEDIVNSNGELYHEHCFVCAQCFRPFPEGLFYEFEGRKYCEHDFQML, the abundance fitness was -0.009 ± 0.078. With AVCQRCQARFSPAECIVNSNGELYHEHCFVCAQCFRPFPEGLFYEFEGRKYCEHDFQML, the abundance fitness is -0.198 ± 0.072. The value for AVCQRCQARFSPAERIVNSNGELYHEHCFVCAQCFREFPEGLFYEFEGRKYCEHDFQML was 0.042 ± 0.11; that for AVCQRCQARISPAERIVNSNGELYHEHCFVCAQCFRPFPEGLFYEFEGRKYCEHDFQML was 0.022 ± 0.1; that for AVCQRCQARFSPAERIVNSNGELYHEHCFVCAQCFRPFPEGLFYEFEGRKYCEHMFQML was -1.24 ± 0.22. As for AVCQRCQARFSPAERIVNSNGELYHEHCFVCAQCFRPFPEGLFYEFEGRKYCEHGFQML, the figure is -0.636 ± 0.068; as for AVCQRCQARFSPAERIVNSNGELYHEHCFVCAQCFRPFPEGLFYEFEGRKYCEHKFQML, -0.918 ± 0.12; as for AVCQRCQARFSPAERIVNSNGNLYHEHCFVCAQCFRPFPEGLFYEFEGRKYCEHDFQML, 0.053 ± 0.1. The value for AVCQRCQARFSPAERIVNSNGELYHEHCFVCAQCFRPFPEGLFYEFEGRKYTEHDFQML was -0.952 ± 0.16. Turning to AVCQRCQARFSPAERIVNSNGELYHEHCFVCAQCFRPFPEGLFYEFEGRKYWEHDFQML, the abundance fitness is -1.14 ± 0.24.

Values taken from the Human Domainome abundance scans (Beltran et al. 2025).
